Paper PMC5452035, “Structural insight into recognition of phosphorylated threonine‐4 of RNA polymerase II C‐terminal domain by Rtt103p” (EMBO Reports, 2017)
Non-standard residues stand in square brackets, D forms with d. No end group written: not given here. pT = C[C@@H](OP(=O)(O)O)[C@H](N)C(=O)O; pS = N[C@@H](COP(=O)(O)O)C(=O)O; FAM = 5,6-carboxyfluorescein

How the values were obtained:
Experiment in all cases: fluorescence polarisation; fluorescence anisotropy; Rtt103p CID titrated into 10 nM N-terminally FAM-labelled CTD peptide; 10°C; 35 mM KH2PO4, 100 mM KCl, pH 6.8; 1:1 model with non-specific binding (DynaFit)
Details in all cases: both partners purified
[1] = target: T1, Rtt103p CTD-interacting domain (CID) (3-131-6xHIS) (yeast, UniProt Q05543 3-131)
T1 construct: Used unlabelled for fluorescence anisotropy and the 13C-HSQC titration, 15N-labelled for the TROSY titration and 15N,13C-labelled for the structure; also called Rtt103p CID; Rtt103 CID
T1 sequence (looked up): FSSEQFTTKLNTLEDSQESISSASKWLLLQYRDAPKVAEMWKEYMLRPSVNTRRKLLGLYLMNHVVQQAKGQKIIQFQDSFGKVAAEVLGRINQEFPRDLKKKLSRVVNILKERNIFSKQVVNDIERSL

[2] = target: T2, Rtt103p CID Arg108Asn mutant (yeast, UniProt Q05543 3-131, Arg108Asn)
T2 sequence (looked up): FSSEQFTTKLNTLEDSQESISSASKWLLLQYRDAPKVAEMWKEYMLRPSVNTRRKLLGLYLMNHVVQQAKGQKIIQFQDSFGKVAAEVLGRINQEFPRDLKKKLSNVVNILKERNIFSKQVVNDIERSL

[3] = target: T3, Rtt103p CID Arg116Glu mutant (yeast, UniProt Q05543 3-131, Arg116Glu)
T3 sequence (looked up): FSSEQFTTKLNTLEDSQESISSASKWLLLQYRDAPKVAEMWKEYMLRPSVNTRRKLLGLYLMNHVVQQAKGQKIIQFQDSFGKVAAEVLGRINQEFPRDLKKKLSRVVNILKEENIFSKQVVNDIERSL

[4] = target: T4, Rtt103p CID Lys72Glu mutant (yeast, UniProt Q05543 3-131, Lys72Glu)
T4 sequence (looked up): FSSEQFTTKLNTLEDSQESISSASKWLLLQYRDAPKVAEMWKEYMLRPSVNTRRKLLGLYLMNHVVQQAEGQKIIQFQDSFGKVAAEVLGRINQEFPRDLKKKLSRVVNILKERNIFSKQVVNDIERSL

B1: FAM-PSYSP(pT)SPSYS (peptide)
peptide: {FAM}-PSYSP[pT]SPSYS
notes: consensus heptad repeats of the C-terminal domain of the largest subunit of RNA polymerase II (Rpb1); residues named by heptad position and repeat letter (P6a ... S2c); source: synthetic peptide (JPT, Berlin, or Clonestar, Brno)
Binder B1 has a Kd [1] of 18 µM.

B2: FAM-PSY(pS)PTSPSYSPTSPS (peptide)
peptide: {FAM}-PSY[pS]PTSPSYSPTSPS
notes: consensus heptad repeats (Tyr1-Ser2-Pro3-Thr4-Ser5-Pro6-Ser7) of the C-terminal domain of the largest subunit of RNA polymerase II (Rpb1); residues named by heptad position and repeat letter (P6a ... S7c); also called pSer2-CTD; FAM-pSer2 CTD; source: synthetic peptide (JPT, Berlin, or Clonestar, Brno)
Work on B2 yielded a Kd [2] of 44 µM.

B3: FAM-PSYSP(pT)SPSYSPTSPS (peptide)
peptide: {FAM}-PSYSP[pT]SPSYSPTSPS
notes: consensus heptad repeats of the C-terminal domain of the largest subunit of RNA polymerase II (Rpb1); residues named by heptad position and repeat letter (P6a ... S7c); also called pThr4-CTD; FAM-pThr4 CTD; source: synthetic peptide (JPT, Berlin, or Clonestar, Brno)
In the case of B3, the Kd [3] is reported as 107 µM, the Kd [2] is reported as 38 µM and the Kd [4] is reported as 54 µM.
